Results taken from patent publication US20210355229A1 (JIANGSU HENGRUI MEDICINE, published 2021).
One block for each binder: values may come before it.

Legend:
[1] = target: T1, human OX40-FC-biotin (human OX40 recombinant protein with Fc tag, Acro Biosystems OX40-H5255, labeled with … (human, UniProt P43489 29-216, labeled with biotin (site not stated))); test: capture ELISA, biotin-OX40-Fc
T1 construct: range 29-216; Bought (Acro Biosystems OX40-H5255; printed once as OXO-H5255), expressed in HEK293; also called human Bio-OX40-FC; not shown: Fc tag of the bought protein
T1 sequence (looked up): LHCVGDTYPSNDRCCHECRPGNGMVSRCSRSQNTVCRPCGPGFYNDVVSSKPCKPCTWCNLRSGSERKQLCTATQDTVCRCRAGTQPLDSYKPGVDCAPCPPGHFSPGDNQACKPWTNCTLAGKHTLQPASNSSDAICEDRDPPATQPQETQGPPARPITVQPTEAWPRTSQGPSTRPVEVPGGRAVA
Procedure: 20xPBS buffer was diluted to 1 xwith deionized water. […] 100 μL of the diluted primary antibody was added to each well (the antibody to be tested was 5-fold diluted from the concentration of 10000 ng/ml, resulting in seven gradients, namely 10000 ng/ml, 2000 ng/ml, 400 ng/ml, 80 ng/ml, 16 ng/ml, 3.2 ng/ml, and 0.64 ng/ml, blank wells merely contained dilution solution, i.e., 2.5% skimmed milk in PBST), and incubated at 37° C. for 40 minutes. The plate was washed for 4 times with PBST, human OX40-FC-biotin (Acro biosystem, OXO-H5255, labeled biotin) was diluted with 2.5% skimmed milk in PBST, 100 μl was added to each well, incubated at 37° C. for 40 min, and the plate was washed for 4 times with PB ST. 100 μL TMB developing solution was added to each well, incubated for 3-15 minutes in dark at room temperature, 50 μl stop solution (1M sulfuric acid) was added to each well. The parameters were set for the microplate reader, the OD value was read at 450-630nm, and the test data were saved.

[2] = target: T2, human OX40-His protein (sinobiological # 10481-H08H) (human, UniProt P43489 29-216); test: SPR (Biacore T200), antibody coupled to CM5 chip, OX40-His as analyte, 1:1 model
T2 construct: Bought; analyte in Biacore; not shown: His tag
T2 sequence (looked up): T1 sequence (looked up)
Procedure: Using the kit provided by Biacore, the recombinant anti-OX40 antibody to be tested of the present invention was covalently connected to the CM5 (GE) chip by NHS standard amino coupling method. A series of concentration gradients of human OX40-His protein (sinobiological # 10481-H08H) diluted in the same buffer were then loaded into each cycle at a flow rate of 30 μL/min. After loading, the chip was regenerated using regeneration reagent provided in the kit. The antigen-antibody binding kinetics was traced for 3 minutes, and the dissociation kinetics was traced for 10 minutes. The resulting data were analyzed by using BIAevaluation software (GE) with 1:1 (Langmuir) binding model.

[3] = target: T1, human OX40-FC-biotin (human OX40 …); test: blocking ELISA: OX40L coated, biotin-OX40-Fc pre-incubated with antibody, SA-HRP
Procedure: The well-plate was coated with the OX40 ligand (Acrobiosystem, OXL-H52Q8), blocked, added the gradient-diluted antibody to be tested (the antibody was diluted in a solution comprising human Bio-OX40-FC (Acrobiosystem, OX40-H5255, labeled with biotin), pre-incubated for 40 minutes, and then added into the plate), incubated for 40 minute, and washed. SA-HRP (Jackson Immunoresearch, 016-030-084) was then added and incubated for 40min. The developing solution and stop solution were added, and the OD value was measured.

[4] = target: T3, human OX40 on Jurkat-NF-Kb luc-hOX40 cells (human, UniProt P43489 29-277); test: cell-based or functional assay
T3 sequence (looked up): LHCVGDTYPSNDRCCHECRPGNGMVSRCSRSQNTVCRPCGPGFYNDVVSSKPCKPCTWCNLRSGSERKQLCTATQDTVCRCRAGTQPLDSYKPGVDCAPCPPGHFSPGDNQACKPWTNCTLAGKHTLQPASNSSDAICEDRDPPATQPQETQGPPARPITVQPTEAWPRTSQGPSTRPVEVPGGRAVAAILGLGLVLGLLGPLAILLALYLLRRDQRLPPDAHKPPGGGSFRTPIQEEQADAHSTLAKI

- EC50 [1]: 0.254 µg/mL
- Kd [2]: 2.81 nM
- koff [2]: 0.000369 s⁻¹
- kon [2]: 131000 M⁻¹ s⁻¹
- IC50 [3]: 0.725 nM
- EC50 (nM), activation of reporter gene (luciferase, Jurkat-NF-Kb luc-hOX40 cells with Raji cells, anti-CD3 coated) [4]: 0.341 nM
B1: humanized antibody hu4B5-V7 (antibody, human IgG1, kappa, V domains shown)
VH: QVQLKESGPGLVKPSETLSLTCTVSGFSLTSYGLHWFRQPPGKGLEWIGVIWSGGSTDYNAAFISRVTISKEDSKSQVSLKLSSVTAADTAVYYCAREEYDVWGQGTTVTVSS
VL: DIQMTQSPSSLSASVGDRVTITCRASQDISNYLNWYQQKPGGVPKLLIYYTSRLHSGVPSRFSGSGSGTDYTLTISSLQPEDVATYYCQQGNTLPWTFGGGTKVEIKR

- Kd [2]: 4.63 nM
- koff [2]: 0.00202 s⁻¹
- kon [2]: 437000 M⁻¹ s⁻¹
- IC50 [3]: 1.88 nM
- EC50 (nM), activation of reporter gene (luciferase, Jurkat-NF-Kb luc-hOX40 cells with Raji cells, anti-CD3 coated) [4]: 2.29 nM
B2: humanized antibody 2G3 (antibody, human IgG1, kappa, V domains shown)
VH: QVQLQESGPGLVKPSETLSLTCTVSGYSISRYSVHWVRQPPGKGLEWIGMIWDGGNTDYNAALKSRFTISRDNAKNTLYLQMNSLRAEDTAVYYCARNPLYFSYAMDYWGQGTLVTVSS
VL: DIQMTQSPSSLSASVGDRVTITCRASQDISNYLNWYQQKPDQSPKLLIIYTSRLQSGVPSRFSGSGSGTDYTLTISSLQPEDFATYYCQQVNTFPFTFGQGTKLEIKR
notes: also called 2G3 (hu2G3 VH1.1 + hu2G3 VL1)
